Variants at the floor of the assay were thinned out.
What was measured:
biotinyl-Phe-oxazolone = assay: self-aminoacylation, catalytic enhancement (BFO) (fold over background); higher = more active; k-Seq, kA / k0A0; sequences stand for … in GGGAAUGGAUCCACAUCUACGAAUUC…UUCACUGCAGACUUGACGAAGCUG
Procedure, shortened: (§1)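 Working in 50 μL HEPES/NaCl/KCl/MgCl2/CaCl2 buffer with 5% acetonitrile at pH 6.9–7.0, mutagenized RNA pools (0.43 μM; 21-nt variable region) were reacted with 2–1250 μM of each biotinyl-aminoacyl-oxazolone for 90 minutes at room temperature. Streptavidin capture followed, with quantification by triplicate qPCR and Illumina sequencing. Catalytic enhancement is reported as median kA over the uncatalyzed rate, the low-activity peak of a bimodal Gaussian fit to the data.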

biotinyl-Val-oxazolone = assay: self-aminoacylation, catalytic enhancement (BVO) (fold over background); higher = more active; k-Seq, kA / k0A0; sequences stand for … in GGGAAUGGAUCCACAUCUACGAAUUC…UUCACUGCAGACUUGACGAAGCUG
Procedure, shortened: as §1

biotinyl-Leu-oxazolone = assay: self-aminoacylation, catalytic enhancement (BLO) (fold over background); higher = more active; k-Seq, kA / k0A0; sequences stand for … in GGGAAUGGAUCCACAUCUACGAAUUC…UUCACUGCAGACUUGACGAAGCUG
Procedure, shortened: as §1

biotinyl-Ile-oxazolone = assay: self-aminoacylation, catalytic enhancement (BIO) (fold over background); higher = more active; k-Seq, kA / k0A0; sequences stand for … in GGGAAUGGAUCCACAUCUACGAAUUC…UUCACUGCAGACUUGACGAAGCUG
Procedure, shortened: as §1

biotinyl-Met-oxazolone = assay: self-aminoacylation, catalytic enhancement (BMO) (fold over background); higher = more active; k-Seq, kA / k0A0; sequences stand for … in GGGAAUGGAUCCACAUCUACGAAUUC…UUCACUGCAGACUUGACGAAGCUG
Procedure, shortened: as §1

biotinyl-Trp-oxazolone = assay: self-aminoacylation, catalytic enhancement (BWO) (fold over background); higher = more active; k-Seq, kA / k0A0; sequences stand for … in GGGAAUGGAUCCACAUCUACGAAUUC…UUCACUGCAGACUUGACGAAGCUG
Procedure, shortened: as §1

| Sequence | self-aminoacylation (biotinyl-Phe-oxazolone) | self-aminoacylation (biotinyl-Val-oxazolone) | self-aminoacylation (biotinyl-Leu-oxazolone) | self-aminoacylation (biotinyl-Ile-oxazolone) | self-aminoacylation (biotinyl-Met-oxazolone) | self-aminoacylation (biotinyl-Trp-oxazolone) |
| --- | --- | --- | --- | --- | --- | --- |
| CCACACUUCAAGCAAGCGGGC [Fam1B.1 aminoacylation ribozyme variant] | 6.38 | 2.29 | 1.59 | 1.61 | 2.41 | 2.67 |
| AUUAAGCUGGUCAUCGAGUGA [Fam2.1 aminoacylation ribozyme variant] | 4.33 | 2.36 | 3.05 | 2.77 | 3.07 | 3.85 |
| AUUACCCUGGUGAUCGAGUGA [Fam2.1 aminoacylation ribozyme variant] | 25.1 | 2.69 | 5.14 | 2.56 | 5.19 | 5.95 |
| AUUUCCCUGGUCAUCGAGUGG [Fam2.1 aminoacylation ribozyme variant] | 12 | 3.99 | 8.26 | 3.66 | 7.95 | 7.09 |
| CCACGCUUCAAGAAAUCGGUC [Fam1B.1 aminoacylation ribozyme variant] | 10.3 | 0.945 | 1.19 | 0.895 | 0.772 | 8.12 |
| AAGUUUGCUAAUAGUCCCAAU [Fam3.1 aminoacylation ribozyme variant] | 1.36 | 0.912 | 1 | 1.3 | 0.987 | 1.28 |
| AUUACCCUGGUCAUCAAGUUA [Fam2.1 aminoacylation ribozyme variant] | 0.737 | 0.681 | 0.646 | 0.676 | 0.684 | 0.328 |
| AAGUUUGCUAAUAGUCGCAAC [Fam3.1 aminoacylation ribozyme variant] | 1.28 | 0.935 | 0.816 | 0.972 | 0.904 | 1.06 |
| CCACACUUAAAGCAAUCCGUC [Fam1B.1 aminoacylation ribozyme variant] | 0.452 | 1.17 | 0.838 | 0.998 | 0.879 | 0.523 |
| ACUCCCCUAGGUCAUCGGGUG [Fam2.2 aminoacylation ribozyme variant] | 101 | 10.3 | 18.6 | 8.61 | 13.7 | 13.8 |
| AUUCACCUAGGUCAUGUGGUG [Fam2.2 aminoacylation ribozyme variant] | 20 | 2.1 | 3.91 | 2.18 | 2.95 | 2.98 |
| AGUACCCUGGUCACCGAGUGA [Fam2.1 aminoacylation ribozyme variant] | 54.5 | 4.11 | 9.52 | 4.52 | 8.83 | 11.1 |
| AACUUUGCUAAUGGUCGCAAG [Fam3.1 aminoacylation ribozyme variant] | 9.47 | 2.43 | 2.64 | 2.47 | 2.44 | 3.24 |
| CCACACUUCAAGCCGUCGGUC [Fam1B.1 aminoacylation ribozyme variant] | 0.678 | 1.49 | 1.57 | 1.41 | 1.47 | 1 |
| CUAGUUCAAACAAACGGUCUG [Fam1A.1 aminoacylation ribozyme variant] | 0.831 | 0.77 | 0.91 | 0.913 | 0.814 | 0.823 |
| AUUCAUCUAGGGCAUCGGGUG [Fam2.2 aminoacylation ribozyme variant] | 21.4 | 2.97 | 4.32 | 2.81 | 3.45 | 2.7 |
| AACUUUGCUAAGAGUCGCAAG [Fam3.1 aminoacylation ribozyme variant] | 12.8 | 2.62 | 4.13 | 2.78 | 3.93 | 5.02 |
| AUUACCGUGGUCAUCGAGUGC [Fam2.1 aminoacylation ribozyme variant] | 2.57 | 1.05 | 1.08 | 0.895 | 0.762 | 1 |
| AUUCCCCGGGUCAUCGAGUGA [Fam2.1 aminoacylation ribozyme variant] | 30 | 2.92 | 4.99 | 3.32 | 4.59 | 6.46 |
| AUUACCCUGGUCAGCGUGUGA [Fam2.1 aminoacylation ribozyme variant] | 30.9 | 3.59 | 5.25 | 2.79 | 5.28 | 6.56 |
| CCACACUUGAAGCGAUCGGUC [Fam1B.1 aminoacylation ribozyme variant] | 1.67 | 1.39 | 0.996 | 1.41 | 1.36 | 0.952 |
| AUUACCGUGGUCUUCGAGUGA [Fam2.1 aminoacylation ribozyme variant] | 27 | 3.21 | 5.05 | 2.96 | 5.14 | 6.36 |
| AAGUUUGCUAAGAGUCGAAAG [Fam3.1 aminoacylation ribozyme variant] | 1.3 | 0.785 | 0.602 | 0.804 | 0.817 | 0.757 |
| CUACUUCAAAAAAUCGGUCUU [Fam1A.1 aminoacylation ribozyme variant] | 5.8 | 0.807 | 1.05 | 1.02 | 0.966 | 4.11 |
| CUACUUCAAACAACCGGUCCG [Fam1A.1 aminoacylation ribozyme variant] | 0.643 | 1.01 | 0.962 | 0.993 | 0.703 | 1 |
| AAUCACCUCGGUCAUCGGGUG [Fam2.2 aminoacylation ribozyme variant] | 31.2 | 5.23 | 4.99 | 4.07 | 4.76 | 7.61 |

| Sequence | self-aminoacylation (biotinyl-Phe-oxazolone) | self-aminoacylation (biotinyl-Val-oxazolone) | self-aminoacylation (biotinyl-Leu-oxazolone) | self-aminoacylation (biotinyl-Ile-oxazolone) | self-aminoacylation (biotinyl-Met-oxazolone) | self-aminoacylation (biotinyl-Trp-oxazolone) |
| --- | --- | --- | --- | --- | --- | --- |
| GUAAUUCAAACAAUCGGUCUG [Fam1A.1 aminoacylation ribozyme variant] | 2.5 | 0.938 | 0.967 | 1.05 | 0.925 | 2.11 |
| AAGUUUGCUAAUAGGCGUAAG [Fam3.1 aminoacylation ribozyme variant] | 0.828 | 0.735 | 0.66 | 0.669 | 0.735 | 0.664 |
| AUUCACCUCGGUCAUCGGGUG [Fam2.2 aminoacylation ribozyme variant] | 53.6 | 5.15 | 9.64 | 4.59 | 7.69 | 7.49 |
| AAGUUUGCUAAUAGUCGUAAU [Fam3.1 aminoacylation ribozyme variant] | 1.24 | 1.23 | 1.07 | 1.19 | 1.19 | 1.13 |
| AUUCACCUAGCUCAUCGGGCG [Fam2.2 aminoacylation ribozyme variant] | 11.7 | 2.57 | 2.33 | 2.26 | 2.3 | 1.8 |
| AUUCACCUAAGUCAUCGGUUG [Fam2.2 aminoacylation ribozyme variant] | 0.716 | 1.24 | 1.23 | 1.06 | 1.14 | 0.969 |
| CCACACUUCAUGCGAUCGGUC [Fam1B.1 aminoacylation ribozyme variant] | 0.762 | 1.17 | 1.12 | 1.1 | 0.828 | 0.917 |
| UUUCACCUAGUUCAUCGGGUG [Fam2.2 aminoacylation ribozyme variant] | 18.6 | 3.09 | 2.99 | 2.44 | 2.6 | 3.92 |
| AUUACCCUGGUCAUCGAGGAA [Fam2.1 aminoacylation ribozyme variant] | 8.38 | 2.44 | 5.25 | 2.3 | 5.91 | 4.88 |
| CCACACGUCAAGCAAUCGAUC [Fam1B.1 aminoacylation ribozyme variant] | 0.631 | 0.921 | 0.62 | 0.667 | 0.657 | 0.645 |
| AAGUUUGGCAAUAGUCGCAAG [Fam3.1 aminoacylation ribozyme variant] | 1.92 | 1.42 | 1.4 | 1.79 | 1.49 | 1.49 |
| ACACACUUCAAGCAAUAGGUC [Fam1B.1 aminoacylation ribozyme variant] | 1.57 | 0.976 | 0.737 | 0.894 | 0.828 | 0.901 |
| CUAAUUCAUACAAUCGGUCUG [Fam1A.1 aminoacylation ribozyme variant] | 0.621 | 0.77 | 0.594 | 0.767 | 0.637 | 0.52 |
| AGUCACCUAUGUCAUCGGGUG [Fam2.2 aminoacylation ribozyme variant] | 31.8 | 3.19 | 4.74 | 3.74 | 4.37 | 4.85 |
| AUUCACCUAGGUCCUCGGAUG [Fam2.2 aminoacylation ribozyme variant] | 0.427 | 0.89 | 1.07 | 0.964 | 0.966 | 0.587 |
| AUUACGCUUGUCAUCGAGUGA [Fam2.1 aminoacylation ribozyme variant] | 4.09 | 2.36 | 3.93 | 2.6 | 3.16 | 4.03 |
| AAGUUUACUAGUAGUCGCAAG [Fam3.1 aminoacylation ribozyme variant] | 1.48 | 1.14 | 1.29 | 1.44 | 1.53 | 1.29 |
| AAGUCUGCUAAAAGUCGCAAG [Fam3.1 aminoacylation ribozyme variant] | 23.1 | 1.23 | 1.72 | 1.35 | 1.92 | 6.66 |
| AUUGAUCUAGGUCAUCGGGUG [Fam2.2 aminoacylation ribozyme variant] | 35.2 | 3.8 | 7.89 | 4.45 | 6.53 | 7.06 |
| CUACUUCAAACUAUCGGUUUG [Fam1A.1 aminoacylation ribozyme variant] | 0.88 | 0.961 | 0.829 | 0.944 | 0.748 | 0.697 |
| AUUCAACUACGUCAUCGGGUG [Fam2.2 aminoacylation ribozyme variant] | 26 | 2.95 | 6.07 | 3.26 | 4.57 | 4.72 |
| AUUCGCGUAGGUCAUCGGGUG [Fam2.2 aminoacylation ribozyme variant] | 57.5 | 4.87 | 8.56 | 5.25 | 8.32 | 7.24 |
| CUAGUUCAAAUAAUCGGUCUG [Fam1A.1 aminoacylation ribozyme variant] | 3.78 | 0.793 | 0.879 | 0.901 | 0.872 | 2.87 |
| CUACUUCAAACAAACAGUCUG [Fam1A.1 aminoacylation ribozyme variant] | 0.8 | 0.728 | 0.671 | 0.864 | 0.54 | 0.534 |
| AUUACGCUGGUUAUCGAGUGA [Fam2.1 aminoacylation ribozyme variant] | 27.5 | 3.68 | 5.48 | 3.22 | 5.92 | 6.53 |

From the supplement of paper PMC9233669
